The source of these data is publication PMC314469, “Protein Interaction Networks by Proteome Peptide Scanning” (PLoS Biology, 2004).

Common to all, as to assay: SPOT array
Assay [1] has as its target T1, Boi1 SH3 (BOI1_YEAST), P38041.
T1 chain: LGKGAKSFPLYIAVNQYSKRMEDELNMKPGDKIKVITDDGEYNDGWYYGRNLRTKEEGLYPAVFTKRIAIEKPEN

For assay [2], the target named is T2, Boi2 SH3 (BOI2_YEAST), P39969.
T2 chain: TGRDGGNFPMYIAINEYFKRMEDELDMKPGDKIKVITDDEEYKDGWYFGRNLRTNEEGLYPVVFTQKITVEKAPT

The target in assay [3] is T3, Myo5 SH3 (MYO5_YEAST), Q04439.
T3 chain: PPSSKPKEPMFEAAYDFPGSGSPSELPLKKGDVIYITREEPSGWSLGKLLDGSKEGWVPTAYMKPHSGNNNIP

Assay [4] has as its target T4, Rvs167 SH3 (RV167_YEAST), P39743.
T4 chain: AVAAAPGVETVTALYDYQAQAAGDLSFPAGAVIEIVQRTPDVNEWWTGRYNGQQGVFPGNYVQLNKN

For assay [5], the target named is Sho1 SH3 (SHO1_YEAST), P40073.
Sho1 SH3 (SHO1_YEAST), P40073, sequence (P40073 295-366): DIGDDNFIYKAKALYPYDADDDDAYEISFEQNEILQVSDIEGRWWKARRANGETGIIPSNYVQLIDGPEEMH
The target in assay [6] is T5, Yfr024 SH3 (LSB3_YEAST), P43603.
T5 chain: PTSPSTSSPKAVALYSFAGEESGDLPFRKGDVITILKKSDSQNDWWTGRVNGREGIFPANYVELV

The target of assay [7] is T6, Yhr016c SH3 (YSC84_YEAST), P32793.
T6 chain: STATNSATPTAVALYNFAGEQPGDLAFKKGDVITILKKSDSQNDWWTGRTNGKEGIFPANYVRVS

B1: YGR241C 267-280 (peptide)
chain: TKRQRGEPSEPQQD
Take B1: the normalised SPOT signal, Boehringer light units (BLU); mean over the file's lines of this peptide was found to be 2030 in assay [1]; 21.1 in assay [2]; 27.7 in assay [3]; 189 in assay [4]; 44.1 in assay [5]; 157 in assay [6]. Further, in assay [7], the normalised SPOT signal, Boehringer light units (BLU); mean over the file's lines of this peptide is 43.3.

B2: YMR124W 350-363 (peptide)
chain: TNGPRYSPQNPRPF
Take B2: the normalised SPOT signal, Boehringer light units (BLU); mean over the file's lines of this peptide stood at 30.1 in assay [1]; 15.5 in assay [2]; 158 in assay [3]; 85.3 in assay [4]; 7.4 in assay [5]; 470 in assay [6]. In assay [7], this molecule gave a normalised SPOT signal, Boehringer light units (BLU); mean over the file's lines of this peptide of 43.5.

B3: YPR171W 298-311 (peptide)
chain: TMKNKPKPTPPSPP
For B3, the normalised SPOT signal, Boehringer light units (BLU); mean over the file's lines of this peptide turned out to be 292 in assay [1]; 52.3 in assay [2]; 910 in assay [3]; 48 in assay [4]; 47.8 in assay [5]; 588 in assay [6]. In addition, the normalised SPOT signal, Boehringer light units (BLU); mean over the file's lines of this peptide in assay [7] is 217.

B4: YOR208W 444-457 (peptide)
chain: TKTDKSYPMSPVDA
On to B4, for which the normalised SPOT signal, Boehringer light units (BLU); mean over the file's lines of this peptide in assay [1] was 52.5; in assay [2], 19.3; in assay [3] it was 150; in assay [4], 105; in assay [5], 36.1; in assay [6], 50.1. This molecule displayed a normalised SPOT signal, Boehringer light units (BLU); mean over the file's lines of this peptide in assay [7] of 15.5.

B5: YMR044W 280-293 (peptide)
chain: TKAKKEKPKPPKPI
For the molecule B5, the normalised SPOT signal, Boehringer light units (BLU); mean over the file's lines of this peptide came to 546 in assay [1]; 11.1 in assay [2]; 158 in assay [3]; 32.6 in assay [4]; 56.3 in assay [5]; 95.1 in assay [6]. In assay [7], this molecule gave a normalised SPOT signal, Boehringer light units (BLU); mean over the file's lines of this peptide of 21.2.

B6: YKL017C 267-280 (peptide)
chain: TILERLTPLVPNNL
With B6, the normalised SPOT signal, Boehringer light units (BLU); mean over the file's lines of this peptide is 51.5 in assay [1]; -0 in assay [2]; 249 in assay [3]; 198 in assay [4]; 39.5 in assay [5]; 202 in assay [6]. For the same molecule, the normalised SPOT signal, Boehringer light units (BLU); mean over the file's lines of this peptide in assay [7] amounted to 32.2.

B7: YKL148C 624-637 (peptide)
chain: TLDEKESPSVPPTV
Regarding B7, the normalised SPOT signal, Boehringer light units (BLU); mean over the file's lines of this peptide stood at 58.2 in assay [1]; 15.4 in assay [2]; 212 in assay [3]; 85.7 in assay [4]; 32.4 in assay [5]; 27 in assay [6]. The normalised SPOT signal, Boehringer light units (BLU); mean over the file's lines of this peptide in assay [7] was found to be 57.9.

B8: YMR154C 67-80 (peptide)
chain: TINSRFYPPIPISE
Turning to B8, the normalised SPOT signal, Boehringer light units (BLU); mean over the file's lines of this peptide came out at 95.6 in assay [1]; 6.9 in assay [2]; 76.4 in assay [3]; 130 in assay [4]; 86.9 in assay [5]; 304 in assay [6]. The same molecule showed a normalised SPOT signal, Boehringer light units (BLU); mean over the file's lines of this peptide in assay [7] of 82.1.

B9: YKR055W 36-49 (peptide)
chain: TLDEKNLPRLPTPF
On to B9, for which the normalised SPOT signal, Boehringer light units (BLU); mean over the file's lines of this peptide in assay [1] was found to be 0; in assay [2], 0; in assay [3], 205; in assay [4], 64.3; in assay [5] it was 28100; in assay [6], 92.4. The normalised SPOT signal, Boehringer light units (BLU); mean over the file's lines of this peptide in assay [7] amounted to 64.8.

B10: YKR084C 77-90 (peptide)
chain: TLKKKKTPKKPIAA
As to B10, the normalised SPOT signal, Boehringer light units (BLU); mean over the file's lines of this peptide in assay [1] worked out at 1510; in assay [2], 13; in assay [3], 535; in assay [4], 30.6; in assay [5], 64.1; in assay [6], 304. The molecule further returned a normalised SPOT signal, Boehringer light units (BLU); mean over the file's lines of this peptide in assay [7] of 31.6.

B11: YAL026C 387-400 (peptide)
chain: TLNDRQIPLSPDQM
B11: the normalised SPOT signal, Boehringer light units (BLU); mean over the file's lines of this peptide in assay [1] is 60.6; in assay [2], 27.5; in assay [3], 73.6; in assay [4], 120; in assay [5], 30.3; in assay [6] it was 60.2. Further, the normalised SPOT signal, Boehringer light units (BLU); mean over the file's lines of this peptide in assay [7] was found to be 42.6.

B12: YOR004W 192-205 (peptide)
chain: TKKRKLGPKAPNPL
For the molecule B12, the normalised SPOT signal, Boehringer light units (BLU); mean over the file's lines of this peptide came out at 495 in assay [1]; 37.3 in assay [2]; 694 in assay [3]; 156 in assay [4]; 25 in assay [5]; 321 in assay [6]. This molecule also yielded a normalised SPOT signal, Boehringer light units (BLU); mean over the file's lines of this peptide in assay [7] of 12.6.

B13: YLR337C 365-378 (peptide)
chain: TNSVKATPVPPTLA
As to B13, the normalised SPOT signal, Boehringer light units (BLU); mean over the file's lines of this peptide in assay [1] turned out to be 53.6; in assay [2], 2.7; in assay [3], 168; in assay [4] it was 34.8; in assay [5], 50.1; in assay [6], 7.5. In assay [7], this molecule gave a normalised SPOT signal, Boehringer light units (BLU); mean over the file's lines of this peptide of 23.7.

B14: YLR439W 17-30 (peptide)
chain: TKFTKPKPKQPVLP
B14: the normalised SPOT signal, Boehringer light units (BLU); mean over the file's lines of this peptide is 295 in assay [1]; 6.1 in assay [2]; 445 in assay [3]; 23.4 in assay [4]; 57.7 in assay [5]; 0.2 in assay [6]. Moreover, the normalised SPOT signal, Boehringer light units (BLU); mean over the file's lines of this peptide in assay [7] turned out to be 2.8.
